# How the values were obtained:
# [1] = biological target: biotinylated human ApoC3 (human) (UniProt P02656); test: SPR, biotinylated human ApoC3 on streptavidin chip, scFv-Fc injected, pH 5.5
# [2] = biological target: biotinylated human ApoC3 (human) (UniProt P02656); test: SPR, biotinylated human ApoC3 on streptavidin chip, scFv-Fc injected, pH 7.4
# [3] = biological target: biotinylated human ApoC3 (human) (UniProt P02656); test: SPR, biotinylated human ApoC3 on streptavidin chip, scFv-Fc injected; ratio of KD at pH 5.5 to KD at pH 7.4
# Chain of UniProt P02656 (P02656 21-99): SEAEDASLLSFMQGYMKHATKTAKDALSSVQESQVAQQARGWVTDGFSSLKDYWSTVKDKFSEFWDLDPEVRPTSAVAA
Kd [1] [nM],koff [1] [s⁻¹],kon [1] [M⁻¹ s⁻¹],Kd [2] [nM],koff [2] [s⁻¹],kon [2] [M⁻¹ s⁻¹],KD pH 5.5/KD pH 7.4 [3],Binder
0.06,2.53e-05,393000,0.02,1.75e-05,823000,3,"5E5WT scFv-Fc antibody (scFv, part only; not given: Linker, domain order, Fc, V domains shown, not shown: another chain or arm of the molecule; a dimerising Fc or GST; small tags and cut ends) VH: QLQLVESGGGLVQPGGSLRLSCAASGFTFGTYSMRWVRQVPRKALEWVSSISTDGGGTAYRDSVKGRFTISRDNAKNTLYLQMNNLKPEDTAIYYCVIAGYSDWGQGTQVTVSS VL: ATMLTQSPGSLSVVPGESASISCKTSQGLVHSDGKTYFYWFLQKPGQSPQQLIYQVSNRASGVPDRFTGSGSGTDFTLKISGVKAEDAGVYYCAQGTYYPHTFGSGTRLEIK"
10.9,0.0016,147000,0.59,0.000105,178000,18.5,"5E5VH5_VLWT scFv-Fc antibody (scFv, part only; not given: Linker, domain order, Fc, V domains shown, not shown: another chain or arm of the molecule; a dimerising Fc or GST; small tags and cut ends) VH: QLQLVESGGGLVQPGGSLRLSCAASGFTFGTYSMRWVRQVPRKALEWVSSIHTDGGGTAYRDSVKGRFTISRDNAKNTLYLQMNNLKPEDTAIYYCVIAGYSDWGQGTQVTVSS VL: ATMLTQSPGSLSVVPGESASISCKTSQGLVHSDGKTYFYWFLQKPGQSPQQLIYQVSNRASGVPDRFTGSGSGTDFTLKISGVKAEDAGVYYCAQGTYYPHTFGSGTRLEIK"
16,0.00206,129000,0.51,0.000157,308000,31.4,"5E5VH12_VLWT scFv-Fc antibody (scFv, part only; not given: Linker, domain order, Fc, V domains shown, not shown: another chain or arm of the molecule; a dimerising Fc or GST; small tags and cut ends) VH: QLQLVESGGGLVQPGGSLRLSCAASGFTFGTYSMRWVRQVPRKALEWVSSISTDGGGTAYRDSVKGRFTISRDNAKNTLYLQMNNLKPEDTAIYYCVIHGYSDWGQGTQVTVSS VL: ATMLTQSPGSLSVVPGESASISCKTSQGLVHSDGKTYFYWFLQKPGQSPQQLIYQVSNRASGVPDRFTGSGSGTDFTLKISGVKAEDAGVYYCAQGTYYPHTFGSGTRLEIK"
4.29,0.00116,269000,0.58,0.000221,381000,7.4,"5E5VHWT_VL8 scFv-Fc antibody (scFv, part only; not given: Linker, domain order, Fc, V domains shown, not shown: another chain or arm of the molecule; a dimerising Fc or GST; small tags and cut ends) VH: QLQLVESGGGLVQPGGSLRLSCAASGFTFGTYSMRWVRQVPRKALEWVSSISTDGGGTAYRDSVKGRFTISRDNAKNTLYLQMNNLKPEDTAIYYCVIAGYSDWGQGTQVTVSS VL: ATMLTQSPGSLSVVPGESASISCKTSQGLVHSDGKTYFYWFLQKPGQSPQQLIYQVSNRASGVPDRFTGSGSGTDFTLKISGVKAEDAGVYYCAHGTYYPHTFGSGTRLEIK"

# From US20200148755A1
